Data from article PMC4823841.

Target: recombinant human renin (human) (UniProt P00797)
Sequence of UniProt P00797 (P00797 67-406): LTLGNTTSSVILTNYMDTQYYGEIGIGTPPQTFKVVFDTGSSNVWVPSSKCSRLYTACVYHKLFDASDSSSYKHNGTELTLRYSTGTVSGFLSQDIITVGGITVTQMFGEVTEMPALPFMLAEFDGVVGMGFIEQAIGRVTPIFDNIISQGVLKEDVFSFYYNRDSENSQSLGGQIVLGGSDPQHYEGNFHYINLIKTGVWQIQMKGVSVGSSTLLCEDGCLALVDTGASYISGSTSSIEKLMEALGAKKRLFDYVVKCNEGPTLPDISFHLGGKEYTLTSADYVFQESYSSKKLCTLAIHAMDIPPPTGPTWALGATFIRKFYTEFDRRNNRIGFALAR

In the case of “recombinant ovine angiotensinogen expressed in CHO cells (natural protein)”, the Km (steady-state kinetics of human renin, 25 pM, with 0-0.4 μM oANG at 37 °C, pH 7.2; angiotensin I generated, measured by ELISA; Hanes-Woolf plot) is reported as 0.072 μM.
